Assay results as given in the supplement of paper PMC11246515.
± gives the standard deviation of the averaged measurements.

Test: total protein half-life in vivo (active degradation + dilution); higher = more stable protein
[1] = E. coli NCM3722 delta-clpP delta-lon delta-hslV, growth: N-lim chemostat, doubling time 6 h
[2] = E. coli NCM3722 delta-clpP, growth: N-lim chemostat, doubling time 6 h
[3] = E. coli NCM3722 delta-hslV, growth: N-lim chemostat, doubling time 6 h
[4] = E. coli NCM3722 delta-lon, growth: N-lim chemostat, doubling time 6 h
[5] = E. coli NCM3722 delta-smpB, growth: N-lim chemostat, doubling time 6 h
[6] = wild type E. coli NCM3722, growth: C-lim chemostat, doubling time 3 h
[7] = wild type E. coli NCM3722, growth: C-lim chemostat, doubling time 6 h
[8] = wild type E. coli NCM3722, growth: C-lim chemostat, doubling time 12 h
[9] = wild type E. coli NCM3722, growth: N-lim chemostat, doubling time 6 h
[10] = wild type E. coli NCM3722, growth: N-lim chemostat, doubling time 12 h
[11] = wild type E. coli NCM3722, growth: P-lim chemostat, doubling time 6 h
[12] = wild type E. coli NCM3722, growth: P-lim chemostat, doubling time 12 h

Row | Sequence | total protein half-life in vivo [1] [h] | total protein half-life in vivo [2] [h] | total protein half-life in vivo [3] [h] | total protein half-life in vivo [4] [h] | total protein half-life in vivo [5] [h] | total protein half-life in vivo [6] [h] | total protein half-life in vivo [7] [h] | total protein half-life in vivo [8] [h] | total protein half-life in vivo [9] [h] | total protein half-life in vivo [10] [h] | total protein half-life in vivo [11] [h] | total protein half-life in vivo [12] [h]
1 | MDVSYLLDSLNDKQREAVAAPRSNLLVLAGAGSGKTRVLVHRIAWLMSVENCSPYSIMAVTFTNKAAAEMRHRIGQLMGTSQGGMWVGTFHGLAHRLLRAHHMDANLPQDFQILDSEDQLRLLKRLIKAMNLDEKQWPPRQAMWYINSQKDEGLRPHHIQSYGNPVEQTWQKVYQAYQEACDRAGLVDFAELLLRAHELWLNKPHILQHYRERFTNILVDEFQDTNNIQYAWIRLLAGDTGKVMIVGDDDQSIYGWRGAQVENIQRFLNDFPGAETIRLEQNYRSTSNILSAANALIENNNGRLGKKLWTDGADGEPISLYCAFNELDEARFVVNRIKTWQDNGGALAECAILYRSNAQSRVLEEALLQASMPYRIYGGMRFFERQEIKDALSYLRLIANRNDDAAFERVVNTPTRGIGDRTLDVVRQTSRDRQLTLWQACRELLQEKALAGRAASALQRFMELIDALAQETADMPLHVQTDRVIKDSGLRTMYEQEKGEKGQTRIENLEELVTATRQFSYNEEDEDLMPLQAFLSHAALEAGEGQADTWQDAVQLMTLHSAKGLEFPQVFIVGMEEGMFPSQMSLDEGGRLEEERRLAYVGVTRAMQKLTLTYAETRRLYGKEVYHRPSRFIGELPEECVEEVRLRATVSRPVSHQRMGTPMVENDSGYKLGQRVRHAKFGEGTIVNMEGSGEHSRLQVAFQGQGIKWLVAAYARLESV | 6.25 ± 0.18 | 5.48 ± 0.56 | 3.81 ± 0.25 | 4.29 ± 0.12 | 3.45 ± 0.13 | 2.96 ± 0.033 | 4.72 ± 0.42 | 8.03 ± 1.1 | 3.781 ± 0.029 | 5.67 ± 0.15 | 4.83 ± 0.25 | 7.8 ± 0.18
2 | MSTIVIFLAALLACSLLAGWLIKVRSRRRQLPWTNAFADAQTRKLTPEERSAVENYLESLTQVLQVPGPTGASAAPISLALNAESNNVMMLTHAITRYGISTDDPNKWRYYLDSVEVHLPPFWEQYINDENTVELIHTDSLPLVISLNGHTLQEYMQETRSYALQPVPSTQASIRGEESEQIELLNIRKETHEEYALSRPRGLREALLIVASFLMFFFCLITPDVFVPWLAGGALLLLGAGLWGLFAPPAKSSLREIHCLRGTPRRWGLFGENDQEQINNISLGIIDLVYPAHWQPYIAQDLGQQTDIDIYLDRHVVRQGRYLSLHDEVKNFPLQHWLRSTIIAAGSLLVLFMLLFWIPLDMPLKFTLSWMKGAQTIEATSVKQLADAGVRVGDTLRISGTGMCNIRTSGTWSAKTNSPFLPFDCSQIIWNDARSLPLPESELVNKATALTEAVNRQLHPKPEDESRVSASLRSAIQKSGMVLLDDFGDIVLKTADLCSAKDDCVRLKNALVNLGNSKDWDALVKRANAGKLDGVNVLLRPVSAESLDNLVATSTAPFITHETARAAQSLNSPAPGGFLIVSDEGSDFVDQPWPSASLYDYPPQEQWNAFQKLAQMLMHTPFNAEGIVTKIFTDANGTQHIGLHPIPDRSGLWRYLSTTLLLLTMLGSAIYNGVQAWRRYQRHRTRMMEIQAYYESCLNPQLITPSESLIE | 7.278 ± 0.055 | 6.37 ± 0.32 | 6.48 ± 0.55 | 6.72 ± 0.7 | 5.73 ± 0.16 | 3.25 ± 0.17 | – | 13.9 ± 1.9 | 6.06 ± 0.22 | 11.6 ± 1.6 | 6.84 ± 0.8 | –
3 | MKIFLENLYHSDCYFLPIRDNQQVLVGVELITHFSSEDGTVRIPTSRVIAQLTEEQHWQLFSEQLELLKSCQHFFIQHKLFAWLNLTPQVATLLLERDNYAGELLKYPFIELLINENYPHLNEGKDNRGLLSLSQVYPLVLGNLGAGNSTMKAVFDGLFTRVMLDKSFIQQQITHRSFEPFIRAIQAQISPCCNCIIAGGIDTAEILAQITPFDFHALQGCLWPAVPINQITTLVQR | 4.97 ± 0.65 | 4.111 ± 0.0084 | 3.897 ± 0.0064 | 4.44 ± 0.36 | 3.866 ± 0.031 | 2.99 ± 0.1 | 6.47 ± 1.4 | 9.89 | 4.22 ± 0.84 | 7.69 ± 1.8 | 5.87 ± 0.37 | 11.5 ± 0.35
4 | MDHAIYTAMGAASQTLNQQAVTASNLANASTPGFRAQLNALRAVPVEGLSLPTRTLVTASTPGADMTPGKMDYTSRPLDVALQQDGWLAVQTADGSEGYTRNGSIQVDPTGQLTIQGHPVIGEAGPIAVPEGAEITIAADGTISALNPGDPANTVAPVGRLKLVKATGSEVQRGDDGIFRLSAETQATRGPVLQADPTLRVMSGVLEGSNVNAVAAMSDMIASARRFEMQMKVISSVDDNAGRANQLLSMS | – | – | – | – | – | 0.504 ± 0.13 | – | 3.33 ± 1.4 | – | – | – | –
5 | MSVLQVLHIPDERLRKVAKPVEEVNAEIQRIVDDMFETMYAEEGIGLAATQVDIHQRIIVIDVSENRDERLVLINPELLEKSGETGIEEGCLSIPEQRALVPRAEKVKIRALDRDGKPFELEADGLLAICIQHEMDHLVGKLFMDYLSPLKQQRIRQKVEKLDRLKARA [P0A6K3] | 5.89 ± 0.28 | 4.94 ± 1.4 | 3.19 ± 0.11 | 3.686 ± 0.032 | 2.84 ± 0.43 | 2.6 ± 0.4 | 3.936 ± 0.014 | 6.33 ± 0.35 | 3.12 ± 0.3 | 4.58 ± 0.57 | 4.29 | 8.94 ± 0.6
6 | MKTRIHVVQGDITKLAVDVIVNAANPSLMGGGGVDGAIHRAAGPALLDACLKVRQQQGDCPTGHAVITLAGDLPAKAVVHTVGPVWRGGEQNEDQLLQDAYLNSLRLVAANSYTSVAFPAISTGVYGYPRAAAAEIAVKTVSEFITRHALPEQVYFVCYDEENAHLYERLLTQQGDE [P0A8D6] | – | 4.32 ± 0.98 | 4.02 ± 0.17 | 4.294 ± 0.033 | 3.89 ± 0.28 | – | 5.89 ± 0.66 | 9.58 ± 0.72 | 4.63 ± 0.32 | 6.81 ± 0.32 | 5.95 ± 0.57 | 12 ± 0.23
7 | MKHGIKALLITLSLACAGMSHSALAAASVAKPTAVETKAEAPAAQSKAAVPAKASDEEGTRVSINNASAEELARAMNGVGLKKAQAIVSYREEYGPFKTVEDLKQVPGMGNSLVERNLAVLTL [P0AAR8] | – | – | – | – | – | – | – | 3.36 | – | – | – | –
